In assay [1] the target is HLA-A*02:01. Description: IEDB peptide-MHC binding, purified MHC/direct/fluorescence; filed as Kd, often an IC50 or EC50 that approximates it; ≥ and ≤ were set here for values at or beyond the usual limits of such assays.
Assay [2] addresses HLA-A*02:16. The assay is described as above. To be noted: source organism: Burkholderia mallei ATCC 23344.
For assay [3], the target named is HLA-A*03:01. The assay is described as above.
Assay [4] addresses HLA-A*23:01. The assay is described as above. The conditions noted are these: source organism: Burkholderia mallei ATCC 23344.
For assay [5], the target named is HLA-A*24:03. The description is as above. To be noted: source organism: Burkholderia mallei ATCC 23344.
For assay [6], the target named is HLA-A*29:02. The assay is described as above. The conditions noted are these: source organism: Burkholderia mallei ATCC 23344.
In assay [7] the target is HLA-A*68:02. The assay is described as above. To be noted: source organism: Burkholderia mallei ATCC 23344.
Assay [8] deals with HLA-B*15:01. Described as above. The conditions noted are these: source organism: Burkholderia mallei ATCC 23344.
Assay [9] has as its target HLA-B*15:17. The description is as above. The conditions noted are these: source organism: Burkholderia mallei ATCC 23344.
The target in assay [10] is HLA-B*18:01. The assay is described as above.
Assay [11] addresses HLA-B*27:03. Described as above. To be noted: source organism: Burkholderia mallei ATCC 23344.
In assay [12] the target is HLA-B*39:01. The assay is described as above. To be noted: source organism: Burkholderia mallei ATCC 23344.
Assay [13] addresses HLA-B*46:01. Described as above.
Assay [14] has as its target HLA-B*51:01. Described as above.
Assay [15] concerns the target HLA-B*57:01. The assay is described as above.
Assay [16] has as its target HLA-A*01:01. Nature of the assay: IEDB peptide-MHC binding, purified MHC/competitive/fluorescence; filed as Kd, often an IC50 or EC50 that approximates it; ≥ and ≤ were set here for values at or beyond the usual limits of such assays. The conditions noted are these: source organism: Burkholderia mallei SAVP1.
The target in assay [17] is HLA-A*11:01. The assay is described as above. The conditions noted are these: source organism: Burkholderia mallei SAVP1.
In assay [18] the target is HLA-A*30:01. The description is as above. To be noted: source organism: Burkholderia mallei SAVP1.
Assay [19] has as its target HLA-A*30:02. The assay is described as above. The conditions noted are these: source organism: Burkholderia mallei SAVP1.
Assay [20] addresses HLA-A*66:01. Described as above. To be noted: source organism: Burkholderia mallei SAVP1.
Assay [21] has as its target HLA-B*07:02. The assay is described as above. The conditions noted are these: source organism: Burkholderia mallei SAVP1.
Assay [22] has as its target HLA-B*08:01. The assay is described as above. To be noted: source organism: Burkholderia mallei SAVP1.
The target in assay [23] is HLA-B*14:02. The assay is described as above. To be noted: source organism: Burkholderia mallei SAVP1.
In assay [24] the target is HLA-B*27:05. The assay is described as above. To be noted: source organism: Burkholderia mallei SAVP1.
The target in assay [25] is HLA-B*40:01. The description is as above. To be noted: source organism: Burkholderia mallei SAVP1.
In assay [26] the target is HLA-B*44:02. Described as above. The conditions noted are these: source organism: Burkholderia mallei SAVP1.
Assay [27] concerns the target HLA-B*53:01. The description is as above. To be noted: source organism: Burkholderia mallei SAVP1.
In assay [28] the target is HLA-B*58:01. Described as above. The conditions noted are these: source organism: Burkholderia mallei SAVP1.
In assay [29] the target is HLA-A*02:03. Description: IEDB peptide-MHC binding, purified MHC/direct/fluorescence; filed as Kd, often an IC50 or EC50 that approximates it; ≥ and ≤ were set here for values at or beyond the usual limits of such assays. To be noted: source organism: Variola virus.
Assay [30] addresses HLA-A*02:06. Described as above. The conditions noted are these: source organism: Variola virus.
Assay [31] concerns the target HLA-A*69:01. The assay is described as above.
For assay [32], the target named is HLA-A*01:01. The assay is described as above. The conditions noted are these: source organism: Mycobacterium tuberculosis.
Assay [33] concerns the target HLA-A*11:01. The assay is described as above. The conditions noted are these: source organism: Mycobacterium tuberculosis.
Assay [34] deals with HLA-A*26:01. Described as above. To be noted: source organism: Mycobacterium tuberculosis str. Haarlem.
Assay [35] has as its target HLA-A*30:01. The description is as above. The conditions noted are these: source organism: Mycobacterium tuberculosis str. Haarlem.
Assay [36] deals with HLA-A*31:01. The description is as above. The conditions noted are these: source organism: Mycobacterium tuberculosis.
Assay [37] deals with HLA-B*08:01. The assay is described as above. The conditions noted are these: source organism: Mycobacterium tuberculosis str. Haarlem.
Assay [38] addresses HLA-B*08:02. The description is as above. The conditions noted are these: source organism: Mycobacterium tuberculosis str. Haarlem.
Assay [39] addresses HLA-B*27:05. The description is as above. To be noted: source organism: Mycobacterium tuberculosis.
In assay [40] the target is HLA-B*38:01. Described as above. The conditions noted are these: source organism: Mycobacterium tuberculosis str. Haarlem.
In assay [41] the target is HLA-B*40:01. Described as above. To be noted: source organism: Mycobacterium tuberculosis.
Assay [42] deals with HLA-B*48:01. Described as above. To be noted: source organism: Mycobacterium tuberculosis.
The target in assay [43] is HLA-B*58:01. Described as above. The conditions noted are these: source organism: Mycobacterium tuberculosis.
The target of assay [44] is HLA-B*15:01. Nature of the assay: IEDB peptide-MHC binding, purified MHC/competitive/fluorescence; filed as Kd, often an IC50 or EC50 that approximates it; ≥ and ≤ were set here for values at or beyond the usual limits of such assays. The conditions noted are these: source organism: Mycobacterium tuberculosis C.
Assay [45] has as its target HLA-B*15:09. The assay is described as above. The conditions noted are these: source organism: Mycobacterium tuberculosis C.
The target in assay [46] is HLA-B*39:01. The description is as above. The conditions noted are these: source organism: Mycobacterium tuberculosis C.
Where [47] appears, read: source organism: Burkholderia mallei ATCC 23344.
The mark [48] stands for this setting: source organism: Camelpox virus CMS.
Where [49] appears, read: source organism: Mycobacterium tuberculosis.

pKd: −log10 of the molar value.

By pKd is commonly meant the negative decadic logarithm of the Kd, by convention in mol/L. A lower pKd goes with a large Kd. In the case of NVMDPMHGA, the pKd in assay [1] (setting [47]), in assay [2], in [3] (setting [47]), in assay [4], in assay [5] and in assay [6] was at most 4.70 each time. Further, the pKd in [7] was at least 9.00; in [8] it was at most 4.70; in [9], at most 4.70; in assay [10] (setting [47]) it was at most 4.70; in assay [11], at most 4.70; in assay [12], at most 4.70. Also, the pKd was at most 4.70 in [13] (setting [47]); at most 4.70 in assay [14] (setting [47]); at most 4.70 in [15] (setting [47]); at most 5.30 in assay [16]; at most 5.30 in assay [17]; at most 5.30 in assay [18]. For the same sequence, the pKd in assay [19], in assay [20], in [21], in [22], in assay [23] and in [24] was at most 5.30 throughout. For the same sequence, the pKd in assay [25], in assay [26], in [27] and in assay [28] was at most 5.30 throughout.

DLYDMIHNV: the pKd in assay [1] (setting [48]) was 7.80; in assay [29] it was 8.22; in assay [30], 7.12; in [31] (setting [48]), 8.70.

Take RPKPDYSAM: the pKd is at most 4.70 in assay [32]; at most 4.70 in [1] (setting [49]); at most 4.70 in assay [3] (setting [49]); at most 4.70 in [33]; at most 4.70 in [34]; 6.91 in [35]. Besides, the pKd was at most 4.70 in assay [36]; at most 4.70 in assay [31] (setting [49]); 7.10 in [37]; at most 4.70 in assay [38]; at most 4.70 in assay [10] (setting [49]); at most 4.70 in assay [39]. Further, the pKd in [40], in assay [41], in assay [13] (setting [49]), in [42], in assay [14] (setting [49]) and in assay [15] (setting [49]) was at most 4.70 each time. Further, the pKd is at most 4.70 in assay [43], at most 4.70 in [44], at most 4.70 in assay [45] and 5.71 in assay [46].

For the origin of these results see the Immune Epitope Database (IEDB).
